Molecular target: T1, Ligase IV (UniProt P49917 1-911)
T1 construct: DNA Ligase IV, the subunit of XL; also called DNA Ligase IV
T1 sequence (looked up): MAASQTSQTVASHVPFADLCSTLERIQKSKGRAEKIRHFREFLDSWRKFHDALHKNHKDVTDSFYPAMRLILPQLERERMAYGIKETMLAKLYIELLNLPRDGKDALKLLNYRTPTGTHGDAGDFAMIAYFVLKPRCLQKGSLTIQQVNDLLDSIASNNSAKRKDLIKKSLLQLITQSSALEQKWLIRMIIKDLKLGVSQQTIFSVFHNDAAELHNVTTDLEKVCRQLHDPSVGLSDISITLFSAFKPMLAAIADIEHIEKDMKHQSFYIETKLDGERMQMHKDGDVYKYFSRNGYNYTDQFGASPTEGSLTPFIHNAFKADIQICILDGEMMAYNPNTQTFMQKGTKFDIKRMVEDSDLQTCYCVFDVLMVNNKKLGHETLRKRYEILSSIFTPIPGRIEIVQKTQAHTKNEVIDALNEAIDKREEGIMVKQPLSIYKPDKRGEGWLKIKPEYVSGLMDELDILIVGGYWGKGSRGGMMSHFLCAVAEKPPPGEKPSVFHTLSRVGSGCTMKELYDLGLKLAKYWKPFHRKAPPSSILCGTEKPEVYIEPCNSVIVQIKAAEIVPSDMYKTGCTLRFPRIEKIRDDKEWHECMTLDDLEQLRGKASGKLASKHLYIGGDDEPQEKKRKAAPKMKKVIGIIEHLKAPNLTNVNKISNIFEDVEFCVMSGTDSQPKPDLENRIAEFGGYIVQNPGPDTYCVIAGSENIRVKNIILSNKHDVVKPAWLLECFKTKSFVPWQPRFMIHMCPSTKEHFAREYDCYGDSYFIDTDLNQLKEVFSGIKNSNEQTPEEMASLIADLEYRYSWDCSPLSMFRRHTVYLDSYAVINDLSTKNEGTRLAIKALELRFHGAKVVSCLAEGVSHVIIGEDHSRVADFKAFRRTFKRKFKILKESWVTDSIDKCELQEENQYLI
Conditions: both partners purified

B1: XRCC4 (natural protein, UniProt Q13426 1-336, looked up)
chain: MERKISRIHLVSEPSITHFLQVSWEKTLESGFVITLTDGHSAWTGTVSESEISQEADDMAMEKGKYVGELRKALLSGAGPADVYTFNFSKESCYFFFEKNLKDVSFRLGSFNLEKVENPAEVIRELICYCLDTIAENQAKNEHLQKENERLLRDWNDVQGRFEKCVSAKEALETDLYKRFILVLNEKKTKIRSLHNKLLNAAQEREKDIKQEGETAICSEMTADRDPVYDESTDEESENQTDLSGLASAAVSKDDSIISSLDVTDIAPSRKRRQRMQRNLGTEPKMAPQENQLQEKENSRPDSSLPETSKKEHISAENMSLETLRNSSPEDLFDEI
notes: also called XRCC4 homodimer
- stoichiometry N: < 1 XRCC4 dimer to Ligase IV molar ratio
